Test results from EP4763988A1 (Minghui Pharmaceutical (Hangzhou) Ltd., dated 2025).
Where two headings read alike, the source gives them in different places.

Experiments:
[1] = molecular target: T1, human CDCP1 endogenously expressed on tumor cells (HCT116, SW480, HT-29, LNCaP) (human, UniProt Q9H5V8 30-836); assay: flow cytometry on HCT116 cells endogenously expressing human CDCP1
T1 construct: whole, on cells; also called fl-CDCP1
T1 sequence (looked up): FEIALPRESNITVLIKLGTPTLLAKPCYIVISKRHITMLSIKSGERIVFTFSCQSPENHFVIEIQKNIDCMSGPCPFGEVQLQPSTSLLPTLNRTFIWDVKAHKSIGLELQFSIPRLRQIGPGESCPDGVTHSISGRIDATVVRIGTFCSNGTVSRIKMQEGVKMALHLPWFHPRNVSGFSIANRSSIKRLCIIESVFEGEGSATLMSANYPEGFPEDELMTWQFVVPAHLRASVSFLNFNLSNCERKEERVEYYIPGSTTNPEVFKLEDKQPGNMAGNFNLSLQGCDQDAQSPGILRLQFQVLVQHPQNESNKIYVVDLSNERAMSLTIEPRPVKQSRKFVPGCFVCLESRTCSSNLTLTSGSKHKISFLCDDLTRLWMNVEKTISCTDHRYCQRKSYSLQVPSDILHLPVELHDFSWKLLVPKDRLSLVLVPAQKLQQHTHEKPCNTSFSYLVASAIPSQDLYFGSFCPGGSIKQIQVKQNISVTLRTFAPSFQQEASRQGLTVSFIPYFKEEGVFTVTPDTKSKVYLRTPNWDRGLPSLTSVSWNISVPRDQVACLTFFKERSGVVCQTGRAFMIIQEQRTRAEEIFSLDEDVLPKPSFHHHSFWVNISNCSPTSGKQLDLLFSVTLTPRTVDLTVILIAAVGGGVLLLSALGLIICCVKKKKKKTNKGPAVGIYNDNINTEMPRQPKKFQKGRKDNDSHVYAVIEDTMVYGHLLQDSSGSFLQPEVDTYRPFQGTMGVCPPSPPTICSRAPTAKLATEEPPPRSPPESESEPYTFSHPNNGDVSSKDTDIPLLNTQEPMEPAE

[2] = molecular target: T1, human CDCP1 endogenously expressed on …; assay: flow cytometry on SW480 cells endogenously expressing human CDCP1
[3] = molecular target: T1, human CDCP1 endogenously expressed on …; assay: cell-based or functional assay
[4] = molecular target: T1, human CDCP1 endogenously expressed on …; assay: flow cytometry on LNCaP cells endogenously expressing human CDCP1
[5] = molecular target: T2, Human CDCP1, His Tag (KACTUS, Cat.No. CDC-HM101) (human, UniProt Q9H5V8 30-667, limits assumed); assay: ELISA, plate-coated CDCP1 His Tag 0.5 ug/mL, four-parameter fit
T2 construct: Bought protein coated on ELISA plates; also called human CDCP1 antigen; CDCP1 antigen; not shown: His tag
T2 sequence (looked up): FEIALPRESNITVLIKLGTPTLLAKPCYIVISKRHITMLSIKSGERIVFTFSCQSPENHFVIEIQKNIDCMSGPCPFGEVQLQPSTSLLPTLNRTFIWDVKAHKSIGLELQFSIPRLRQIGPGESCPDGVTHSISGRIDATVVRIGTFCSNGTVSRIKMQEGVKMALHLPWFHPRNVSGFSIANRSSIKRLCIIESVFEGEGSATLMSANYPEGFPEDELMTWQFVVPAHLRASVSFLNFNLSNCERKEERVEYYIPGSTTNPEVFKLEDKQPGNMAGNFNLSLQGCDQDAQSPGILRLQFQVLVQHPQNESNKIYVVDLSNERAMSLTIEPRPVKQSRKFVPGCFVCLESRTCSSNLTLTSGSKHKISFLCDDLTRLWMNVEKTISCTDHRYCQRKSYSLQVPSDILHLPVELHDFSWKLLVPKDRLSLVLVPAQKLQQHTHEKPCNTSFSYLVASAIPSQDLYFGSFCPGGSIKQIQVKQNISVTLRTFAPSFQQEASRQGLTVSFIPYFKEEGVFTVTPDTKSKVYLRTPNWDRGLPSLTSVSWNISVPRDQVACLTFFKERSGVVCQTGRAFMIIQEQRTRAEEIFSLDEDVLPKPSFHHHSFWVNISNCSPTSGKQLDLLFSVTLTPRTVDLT

[6] = molecular target: T2, Human CDCP1, His Tag (KACTUS, Cat.No. …); assay: as above; remark: listed apart in the source
[7] = molecular target: T3, Human CDCP1, His Tag (KACTUS, Cat.No. CDC-HM101) (human) (UniProt Q9H5V8); assay: ELISA of E. coli lysate supernatant of the clone on human CDCP1 antigen
T3 sequence (looked up): T2 sequence (looked up)

B1: h14A043 (MHAB10-PC2) (antibody, human IgG1, kappa, L234A L235A, V domains shown)
VH: QVQLVQSGAEVKKPGSSVKVSCKASGFNIKDYYMNWVRQAPGQGLEWIGWIDPENANTIYDPKFQGRVTITADESTSTAYMELSSLRSEDTAVYYCYGSSYRFTYWGQGTLVTVSS
VL: EIVLTQSPATLSLSPGERATLSCSASSSVSYLYWYQQKPGQAPRPWIYLTSNLASGVPARFSGSGSGTDFTLTISSLEPEDFAVYYCQQWSSNPFTFGGGTKVEIKR
notes: Variable regions from US20230050380A1 on Human IgG1-Kappa constant regions; also called positive control antibody
EC50 [1]: 11.9 µg/mL | EC50 [2]: 2.42 µg/mL | EC50 (pM), endocytosis-mediated cell killing (Fab-ZAP, HCT116 cells) [3]: 41 pM | EC50 [4]: 2.21 µg/mL

B2: 25A11 (MHAB10-PC1) (antibody, human IgG1, kappa, L234A L235A, V domains shown)
VH: EVQLQQPGAELVKPGASVKMSCKASGYTFTSYYMYWVKQRPGQGLEWIGEINPSHGGTNFNEKFKNKATLTVDKSSSTVYMQLSSLTSEDSAVYYCTRGGNYPYFAMDYWGQGTSVTVSS
VL: DIQMTQTTSSLSASLGDRVTISCRASQDISNYLNWYQQKPDGTVKLLIYYTSRLHSGVPSRFSGSGSGTDYSLTISNLEQEDIATYFCQQGNTLPWTFGGGTKLEIKR
notes: Variable regions from US20080008719A1 on Human IgG1-Kappa constant regions; MW printed 146kDa; also called positive control antibody
EC50 [5]: 0.0115 µg/mL | Top [5]: 1.9 OD450 | bottom [5]: 0.0395 OD450 | EC50 [6]: 0.0101 µg/mL | Top [6]: 1.35 OD450 | bottom [6]: 0.041 OD450

B3: MH1-6-C-2-50 (VHH)
VHH: QLQLVESGGGLVQPGGSLRLSCAASGSDVSANGMVWHRQAPGKQREWVAVISSSGSTNYADSVKGRFTISRDSDKNTMYLQMNNLKPEDTAVYLCGVAHYGQTYWGKGTLVTVSS
OD450 [7]: 0.304
